{"source": "patent US20160369008A1", "key": {"[1]": {"target": "active PAI-1 in human plasma (human) (UniProt P05121)", "test": "ELISA: inhibition of the capture of active PAI-1 of human plasma on immobilised uPA (Example 9)"}, "[2]": {"target": "recombinant active human PAI-1 (human) (UniProt P05121)", "test": "cell-based or functional assay"}, "[3]": {"target": "human PAI-1 in complex with uPA (human) (UniProt P05121)", "test": "ELISA, uPA-PAI-1 complex on the plate"}, "[4]": {"target": "tPA-monkey PAI-1 complex (monkey)", "sequence (P00750 36-562, one chain of several)": "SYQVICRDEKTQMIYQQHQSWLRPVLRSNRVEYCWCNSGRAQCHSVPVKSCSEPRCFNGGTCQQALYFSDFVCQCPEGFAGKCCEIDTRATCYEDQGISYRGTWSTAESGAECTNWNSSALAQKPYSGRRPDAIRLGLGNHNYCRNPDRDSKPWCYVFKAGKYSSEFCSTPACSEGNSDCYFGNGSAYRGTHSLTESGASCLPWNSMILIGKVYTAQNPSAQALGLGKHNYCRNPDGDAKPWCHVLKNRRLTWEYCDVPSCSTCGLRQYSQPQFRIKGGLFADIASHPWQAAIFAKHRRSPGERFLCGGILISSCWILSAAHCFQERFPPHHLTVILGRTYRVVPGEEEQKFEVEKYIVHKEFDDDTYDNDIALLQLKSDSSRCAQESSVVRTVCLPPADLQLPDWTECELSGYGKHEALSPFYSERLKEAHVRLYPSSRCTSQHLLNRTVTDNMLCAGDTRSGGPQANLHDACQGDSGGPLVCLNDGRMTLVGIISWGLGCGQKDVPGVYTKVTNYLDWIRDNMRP", "test": "ELISA, tPA-monkey PAI-1 complex on the plate"}, "[5]": {"target": "human PAI-1 in complex with tPA (human) (UniProt P05121)", "test": "ELISA, tPA-PAI-1 complex on the plate"}, "[6]": {"target": "uPA-monkey PAI-1 complex (monkey) (UniProt P00749)", "test": "ELISA, uPA-monkey PAI-1 complex on the plate"}, "[7]": {"target": "latent human PAI-1 (human) (UniProt P05121)", "test": "ELISA, latent human PAI-1 on the plate"}, "[8]": {"target": "active monkey PAI-1 in complex with vitronectin (monkey)", "sequence (P04004 20-478, one chain of several)": "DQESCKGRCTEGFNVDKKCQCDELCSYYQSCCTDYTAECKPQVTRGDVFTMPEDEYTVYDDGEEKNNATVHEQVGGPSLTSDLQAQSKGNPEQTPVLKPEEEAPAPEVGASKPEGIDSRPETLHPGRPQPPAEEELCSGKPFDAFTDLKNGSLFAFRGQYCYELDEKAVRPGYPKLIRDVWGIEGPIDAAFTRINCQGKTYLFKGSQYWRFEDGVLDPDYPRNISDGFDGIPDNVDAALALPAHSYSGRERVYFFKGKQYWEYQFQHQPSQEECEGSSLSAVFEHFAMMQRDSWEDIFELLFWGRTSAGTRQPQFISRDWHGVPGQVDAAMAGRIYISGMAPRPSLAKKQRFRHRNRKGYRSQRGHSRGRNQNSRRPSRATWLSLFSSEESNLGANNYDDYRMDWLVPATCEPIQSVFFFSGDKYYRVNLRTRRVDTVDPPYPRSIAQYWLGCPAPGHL", "test": "ELISA, VTN-monkey PAI-1 complex on the plate"}, "[9]": {"target": "active PAI-1 in monkey plasma (cynomolgus monkey) (UniProt G7P138)", "test": "ELISA: inhibition of the capture of active PAI-1 of monkey plasma on immobilised uPA (Example 9)"}, "[10]": {"target": "active human PAI-1 in complex with vitronectin (human) (UniProt P05121)", "test": "ELISA, VTN-PAI-1 complex on the plate"}, "[11]": {"target": "latent monkey PAI-1 (monkey) (UniProt G7P138)", "test": "ELISA, latent monkey PAI-1 on the plate"}}}
{"substance": "MEDI-579 (antibody)", "values": [{"measurement": "IC50", "setting": "[1]", "value": 0.73, "unit": "ng/mL"}, {"measurement": "EC50 value, taking the activity of uPA as an indicator (cleavage of a fluorogenic uPA substrate peptide)", "setting": "[2]", "value": 42.1, "unit": "ng/mL"}, {"measurement": "EC50", "setting": "[3]", "value": 6.1, "unit": "ng/mL"}, {"measurement": "EC50", "setting": "[4]", "value": 4.3, "unit": "ng/mL"}, {"measurement": "EC50", "setting": "[5]", "value": 3.2, "unit": "ng/mL"}, {"measurement": "EC50", "setting": "[6]", "value": 5.4, "unit": "ng/mL"}, {"measurement": "EC50", "setting": "[7]", "value": 22.1, "unit": "ng/mL"}, {"measurement": "EC50", "setting": "[8]", "value": 4.1, "unit": "ng/mL"}, {"measurement": "IC50", "setting": "[9]", "value": 0.83, "unit": "ng/mL"}, {"measurement": "EC50", "setting": "[10]", "value": 5.2, "unit": "ng/mL"}, {"measurement": "EC50", "setting": "[11]", "value": 48.2, "unit": "ng/mL"}]}
